Laboratory results published in patent publication US20210261665A1 (TAYU HUAXIA BIOTECH MEDICAL GROUP, published 2021).

Assays:
hPD-1 mIg fusion protein [1] = molecular target: T1, hPD-1 mIg fusion protein (human; mouse, UniProt Q15116 25-170); experiment: SPR Biacore T200, hPD-1 mIg immobilised at low level, antibody as analyte; reference pembrolizumab and nivolumab
T1 construct: extracellular domain; not shown: CH2-CH3 domain of mouse IgG2a heavy chain (plasmid pmIgG)
Method: Antibody binding affinity and kinetics: The affinity and kinetics of theTY101 was analyzed using the Biacore T200 instrument (GE Healthcare Life Sciences) and compared with two commercial antibodies.

hPD-1 mIg fusion protein [2] = molecular target: T1, hPD-1 mIg fusion protein; experiment: SPR Biacore T100, hPD-1mIg immobilised by amine coupling, antibody as analyte
Method: Binding affinity and kinetics determination of the humanized antibodies: The binding affinity and kinetics of the humanized PD-1 mAbs interact with hPD-1 protein was assessed with Biacore T100 (GE Healthcare Life Sciences). […] Nine different concentrations were tested for each sample. Detailed binding kinetic parameters (association rate, Ka, dissociation rate, Kd, and affinity constant, KD) can be determined by full kinetic analysis.

human PD-1 on cells = human PD-1 on cells (human, UniProt Q15116 25-288); experiment: cell-based or functional assay
human PD-1 on cells, sequence (Q15116 25-288): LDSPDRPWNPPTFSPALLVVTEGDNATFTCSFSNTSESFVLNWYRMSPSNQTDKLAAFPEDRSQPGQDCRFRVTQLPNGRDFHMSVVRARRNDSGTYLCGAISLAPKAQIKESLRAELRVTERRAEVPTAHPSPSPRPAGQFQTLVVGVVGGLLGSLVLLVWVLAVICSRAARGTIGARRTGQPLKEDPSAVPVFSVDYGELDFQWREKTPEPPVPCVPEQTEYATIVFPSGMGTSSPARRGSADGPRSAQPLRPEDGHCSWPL

T1 sequence (Q15116 25-170): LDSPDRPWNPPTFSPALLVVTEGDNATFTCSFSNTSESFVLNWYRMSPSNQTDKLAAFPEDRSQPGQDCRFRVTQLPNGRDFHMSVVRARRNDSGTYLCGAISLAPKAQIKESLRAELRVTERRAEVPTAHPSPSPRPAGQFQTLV

B1: Variant 3 (TY101) (antibody, V domains shown)
VH: EVQLVESGGGLVQPGGSLRLSCAASGFTFSSYTMSWVRQAPGKGLEWVSYISHGGGDTYYADSVKGRFTISRDNSKNTLYLQMNSLRAEDTAVYYCARHSGYERGYYYVMDYWGQGTLVTVSS
VL: DIQLTQSPDSLSVSLGERATINCKASESVDYYGFSFLNWFQQKPGQPPKLLIYAASNRQSGVPDRFSGSGSGTDFTLTISSLQAEDVAVYFCQQSKEVPWTFGQGTKLEIKR
notes: Humanized; VH variant a, VK variant c; Constant regions not spelled out; chimeric parent has human IgG4-S228P and human kappa; also called mutant combination 3
- fold slower dissociation rate Kd than the two commercial antibodies (hPD-1 mIg fusion protein [1]): 10 fold
- Kd (hPD-1 mIg fusion protein [2]): 0.0963 nM
- koff (hPD-1 mIg fusion protein [2]): 2.33e-05 s⁻¹
- kon (hPD-1 mIg fusion protein [2]): 242000 M⁻¹ s⁻¹
- EC50; luciferase RLU of Jurkat-PD1 cells stimulated with CHO-PD-L1 cells (PD-1/PD-L1 Blockade Bioassay) (human PD-1 on cells): 0.224 µg/mL
